Test results from patent US20260263566A1 (REALTA, published 2026).
Ends that are not written are not given here. dPEG24 = 24 PEG moieties, at the C-terminus

Target: T1, Human neutrophil myeloperoxidase (MPO), purified (human, UniProt P05164 165-745, limits assumed)
T1 sequence (looked up): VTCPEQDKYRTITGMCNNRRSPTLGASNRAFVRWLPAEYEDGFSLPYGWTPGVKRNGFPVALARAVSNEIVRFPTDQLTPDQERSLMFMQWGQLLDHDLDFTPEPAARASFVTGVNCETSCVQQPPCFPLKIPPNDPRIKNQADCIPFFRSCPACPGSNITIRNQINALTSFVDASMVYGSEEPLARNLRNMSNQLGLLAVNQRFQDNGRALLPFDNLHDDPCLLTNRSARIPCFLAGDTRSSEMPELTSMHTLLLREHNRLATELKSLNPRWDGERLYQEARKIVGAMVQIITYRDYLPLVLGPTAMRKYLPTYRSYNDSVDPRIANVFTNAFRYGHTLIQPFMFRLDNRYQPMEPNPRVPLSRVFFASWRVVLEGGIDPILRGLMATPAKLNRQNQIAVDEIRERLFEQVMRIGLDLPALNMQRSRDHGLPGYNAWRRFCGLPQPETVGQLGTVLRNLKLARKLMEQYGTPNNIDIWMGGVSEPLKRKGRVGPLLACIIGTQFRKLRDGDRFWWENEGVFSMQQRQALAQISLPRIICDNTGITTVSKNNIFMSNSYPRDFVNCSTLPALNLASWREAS
Assay: cell-based or functional assay

B1: PA-dPEG24 (IALILEPICCQERAA-dPEG24) (peptide)
peptide: IALILEPICCQERAA-dPEG24
modifications: cysteine pairing not given here
- peroxidase activity by TMB in peritoneal wash supernatant (rat; 0.1 mg purified MPO IP, then 20 mg PA-dPEG24 IP, 2 hours): 5 fold decrease
